Assay results reported in patent publication US20050130151, “Method and identification of downstream mrna ligands to fmrp and their role in fragile x syndrome and associated disorders” (Emory University, published 2005).

Assays:
[1] = target: T1, FMRP (full length, iso7) (Homo sapiens, UniProt Q06787-9 Q06787-9:3-605); experiment: filter; 5-6 nt stem sufficient for high affinity; boundaries mapped by alkaline hydrolysis/filter capture
[2] = target: T2, FMRP C-terminus (distal to KH domains, contains RGG box) (Homo sapiens, UniProt Q06787-9 Q06787-9:402-605); experiment: filter; K+; abrogated in Li+; settings: tags: N-terminal T7, C-terminal His (pET21b); label: 32P-UTP; G4
Method: To assess whether the RNAs listed in Table 1 bound FMRP in a G-quartet dependent manner, binding in the presence of Li⁺ versus K⁺ was assessed, and mutants in which the Hoogsteen paired Gs were changed to Cs were generated.

[3] = target: T1, FMRP (full length, iso7); experiment: filter; no binding detected
[4] = target: FMRP I304N (KH2 mutant, full length) (Homo sapiens, UniProt Q06787-9 Q06787-9:3-605, I304N); experiment: filter; nearly as well as wild-type FMRP
[5] = target: T1, FMRP (full length, iso7); experiment: EMSA; 100 nM FMRP; supershifted by anti-FMRP mAb
[6] = target: FMRP N-terminus (Homo sapiens, UniProt Q06787-9 Q06787-9:3-218); experiment: filter; all sc1 binding activity in C-terminal domain; settings: tags: N-terminal T7, C-terminal His (pET21b); label: 32P-UTP; stem-loop with intramolecular G4
[7] = target: T2, FMRP C-terminus (distal to KH domains, …); experiment: as above; settings: tags: N-terminal T7, C-terminal His (pET21b); label: 32P-UTP; stem-loop with intramolecular G4
[8] = target: T1, FMRP (full length, iso7); experiment: filter; severe decrease, undetectable
[9] = target: T1, FMRP (full length, iso7); experiment: filter; minimal effect
[10] = target: T1, FMRP (full length, iso7); experiment: filter; no effect versus sc1
[11] = target: T1, FMRP (full length, iso7); experiment: filter; antisense control in K+

Binder: GCUGCGGUGUGGAAGGAGUGGCUGGGUUGCGCACC (ssRNA) [sc1 truncated with 5-6 nt stem (boundaries nt 23-57)]
- binding result [1]: binds

Binder: GGGGAGGCAGGAGGAGGCCGAGG (ssRNA) [Guanine nucleotide exchange factor (KIAA0763) 3'UTR site]
- binding result [2]: binds

Binder: GUGGAAGGAGUGGCUGGG (ssRNA) [sc1 conserved element only]
- binding result [3]: no binding

Binder: GAGCGGCUGCGGUGUGGAAGGAGUGGCUGGGUUGCGCACCUUGGCUUC (ssRNA) [sc1]
- binding result [4]: binds
- binding result [5]: binds
- binding result [6]: no binding
- binding result [7]: binds

Binder: GAGCGGCUGCGGUGUGGCCGGAGUGGCUGGGUUGCGCACCUUGGCUUC (ssRNA, [none]) [sc1 A35A36 to CC]
- binding result [8]: no binding

Binder: GAGCGGCUGCGGUGUGGAAGAAGUGGCUGGGUUGCGCACCUUGGCUUC (ssRNA, [none]) [sc1 G38A]
- binding signal [9]: < 20 fold decrease

Binder: GAGCGGCUGCGGUGUGGAAGGAGUGGCUGGGAAGCGCACCUUGGCUUC (ssRNA, [none]) [sc1 U49U50 to AA]
- binding signal [9]: < 20 fold decrease

Binder: GAGCGGCUGCGGUGUGGAAGGAGUGGGUGGGUUGCGCACCUUGGCUUC (ssRNA, [none]) [sc1 C44G]
- binding result [10]: binds

Binder: CCUCGGCCUCCUCCUGCCUCCCC (ssRNA) [Sec7-related GEF antisense transcript]
- binding result [11]: no binding
